Data published in patent EP4696714A1, “PREPARATION METHOD FOR NANOBODY TARGETING TISSUE FACTOR AND CONJUGATE AND USE THEREOF” (Fudan University, priority 2023, dated 2024).

B1: 4-C08-FC1-MMAE (4-C08-FC1 coupled to mc-vc-MMAE) (Fc fusion)
chain: DVQLVESGGGLVQPGGSLRLSCAVSGFSLSSYDMNWYRQGPGKEREWVANIHSSGGYPDYADAVKGRFTISRDNAKNMVYLQMNSLKPEDTAVYYCNLPPSRRWYKDYWGQGTQVTVSSEPKSSDKTHTCPPCPAPEFEGGPSVFLFPPKPKDTLMISRTPEVTCVVVDVSHEDPEVKFNWYVDGVEVHNAKTKPREEQYNSTYRVVSVLTVLHQDWLNGKEYKCKVSNKALPASIEKTISKAKGQPREPQVYTLPPSRDELTKNQVSLTCLVKGFYPSDIAVEWESNGQPENNYKTTPPVLDSDGSFFLYSKLTVDKSRWQQGNVFSCSVMHEALHNHYTQKSLSLSPGK
modifications: mc-vc-MMAE coupled to cysteine thiols after TCEP reduction; DAR4 about 41.8% and DAR2 about 42.7% by HIC; positions not given
B2: 4-C05-FC1-MMAE (4-C05-FC1 coupled to mc-vc-MMAE) (Fc fusion)
chain: QVQLVESGGGLVQPGGSLRLSCAASGFTLDTYAIGWIRQAPGKEREGVSCISSTDGSTYYAASVKGRFTINRDNAKNTVYLQMNSLKPEDTAVYYCAAGPGTDCPLRFDYWGQGIQVTVSSEPKSSDKTHTCPPCPAPEFEGGPSVFLFPPKPKDTLMISRTPEVTCVVVDVSHEDPEVKFNWYVDGVEVHNAKTKPREEQYNSTYRVVSVLTVLHQDWLNGKEYKCKVSNKALPASIEKTISKAKGQPREPQVYTLPPSRDELTKNQVSLTCLVKGFYPSDIAVEWESNGQPENNYKTTPPVLDSDGSFFLYSKLTVDKSRWQQGNVFSCSVMHEALHNHYTQKSLSLSPGK
modifications: mc-vc-MMAE coupled to cysteine thiols after TCEP reduction; target DAR 4; positions not given
B3: F1-A01-FC1-MMAE (F1-A01-FC1 coupled to mc-vc-MMAE) (Fc fusion)
chain: EVQLVESGGGLVQAGGSLRLSCAASGRAFSAYAMGWFRQAPGKEREFVAAISWSGGSTYYADSVRGRFTISRDNTKNTVYLQMNSLKPEDTAVYYCNADSLLSLLDGSRGGPGTDSGSWGQGTQVTVSSEPKSSDKTHTCPPCPAPEFEGGPSVFLFPPKPKDTLMISRTPEVTCVVVDVSHEDPEVKFNWYVDGVEVHNAKTKPREEQYNSTYRVVSVLTVLHQDWLNGKEYKCKVSNKALPASIEKTISKAKGQPREPQVYTLPPSRDELTKNQVSLTCLVKGFYPSDIAVEWESNGQPENNYKTTPPVLDSDGSFFLYSKLTVDKSRWQQGNVFSCSVMHEALHNHYTQKSLSLSPGK
modifications: mc-vc-MMAE coupled to cysteine thiols after TCEP reduction; target DAR 4 (about 91% DAR4 by HIC); positions not given
B4: 5-C12-FC1-MMAE (5-C12-FC1 coupled to mc-vc-MMAE) (Fc fusion)
chain: QVQLVESGGGLAQAGGSLRLSCAGSGRTFSTDAMGWFRQAPGKEREFVAAINWSGGSTYYADSVKGRFTISRDNAKNTVYLQMNSVKPEDTAVYYCVADSLLALLDGSRGGPGTDSDSWGQGTQVTVSSEPKSSDKTHTCPPCPAPEFEGGPSVFLFPPKPKDTLMISRTPEVTCVVVDVSHEDPEVKFNWYVDGVEVHNAKTKPREEQYNSTYRVVSVLTVLHQDWLNGKEYKCKVSNKALPASIEKTISKAKGQPREPQVYTLPPSRDELTKNQVSLTCLVKGFYPSDIAVEWESNGQPENNYKTTPPVLDSDGSFFLYSKLTVDKSRWQQGNVFSCSVMHEALHNHYTQKSLSLSPGK
modifications: mc-vc-MMAE coupled to cysteine thiols after TCEP reduction; DAR4 about 66.2% and DAR2 about 21.9% by HIC; positions not given
B5: 4-E04-FC1-MMAE (4-E04-FC1 coupled to mc-vc-MMAE) (Fc fusion)
chain: AVQLVESGGGLVQPGGSLSLSCAASEMISSTYIMGWYRRSPGKERELVAVISGDGVTHYGDFVKGRFAISRDNVKNAVYLKMNFLTPEDTAVYYCNAAGRRNHWGQGTQVTVSSEPKSSDKTHTCPPCPAPEFEGGPSVFLFPPKPKDTLMISRTPEVTCVVVDVSHEDPEVKFNWYVDGVEVHNAKTKPREEQYNSTYRVVSVLTVLHQDWLNGKEYKCKVSNKALPASIEKTISKAKGQPREPQVYTLPPSRDELTKNQVSLTCLVKGFYPSDIAVEWESNGQPENNYKTTPPVLDSDGSFFLYSKLTVDKSRWQQGNVFSCSVMHEALHNHYTQKSLSLSPGK
modifications: mc-vc-MMAE coupled to cysteine thiols after TCEP reduction; the coupling did not complete and the proportion of coupling products was very low; positions not given

These binders were tested against TF on the surface of tumor cells (MDA-MB-231, HPAF-II, HCC1806, BxPC3, HCC44, PC9, H1975 and other … (UniProt P13726 33-295, limits assumed)) (assay: cell-based or functional assay).

Binder	Cell proliferation inhibition IC50, BxPC3 cells (MTS) [ng/mL]	Cell proliferation inhibition IC50, HCC1806 cells (MTS) [ng/mL]	Cell proliferation inhibition IC50, HPAF-II cells (MTS) [ng/mL]
B1	0.7	0.5	1
B2	8.6	14	7.7
B3	1.2	4	0.7
B4	5	26	12
B5	28.8	32.6	24.3
